Experiment [1] concerns the target STAT1cc (STAT1 core fragment, A656C and N658C, locked dimer), tag-free (UniProt P42224). The experiment in a line: nickel affinity copurification, SDS-PAGE, Coomassie blue band quantification. To be noted: parent: est. 1.0; read off a plot.
Experiment [2] concerns the target T1, 6XHis-tagged TgIST-R2 (G365-S420).
T1 chain: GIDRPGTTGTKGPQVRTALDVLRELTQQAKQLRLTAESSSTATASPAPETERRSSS
The description is as above. The following applies: chain shown with the change;; parent: est. 1.0; read off a plot.

6XHis-tagged TgIST-R2 (G365-S420) R387A: the ratio to parent in experiment [1] turned out to be 0.03. Still for that read-out and setting: in the case of 6XHis-tagged TgIST-R2 (G365-S420) E388A it was 1.1. On the same count and under the same terms, in the case of “6XHis-tagged TgIST-R2 (G365-S420) Q391A; Q392A” it was 0.99; in that of “6XHis-tagged TgIST-R2 (G365-S420) R416A; R417A”, 0.98. The same measure, in the same setting: with 6XHis-tagged TgIST-R2 (G365-S420) L386A the figure was 0.02.

B1: STAT1cc (STAT1 core fragment, A656C and N658C, locked dimer), tag-free, P42224 E661A (protein)
chain: STVMLDKQKELDSKVRNVKDKVMCIEHEIKSLEDLQDEYDFKCKTLQNREHETNGVAKSDQKQEQLLLKKMYLMLDNKRKEVVHKIIELLNVTELTQNALINDELVEWKRRQQSACIGGPPNACLDQLQNWFTIVAESLQQVRQQLKKLEELEQKYTYEHDPITKNKQVLWDRTFSLFQQLIQSSFVVERQPCMPTHPQRPLVLKTGVQFTVKLRLLVKLQELNYNLKVKVLFDKDVNERNTVKGFRKFNILGTHTKVMNMEESTNGSLAAEFRHLQLKEQKNAGTRTNEGPLIVTEELHSLSFETQLCQPGLVIDLETTSLPVVVISNVSQLPSGWASILWYNMLVAEPRNLSFFLTPPCARWAQLSEVLSWQFSSVTKRGLNVDQLNMLGEKLLGPNASPDGLIPWTRFCKENINDKNFPFWLWIESILELIKKHLLPLWNDGCIMGFISKERERALLKDQQPGTFLLRFSESSREGAITFTWVERSQNGGEPDFHAVEPYTKKELSAVTFPDIIRNYKVMACECIPANPLKYLYPNIDKDHAFGKYYSRPKEAPEPMELDGPKGTGYIKTELISVSEVH
Consider B1, for which, in experiment [2], the ratio to parent was determined as 0.61.

B2: STAT1cc (STAT1 core fragment, A656C and N658C, locked dimer), tag-free, P42224 E657A (protein)
chain: MSQWYELQQLDSKFLEQVHQLYDDSFPMEIRQYLAQWLEKQDWEHAANDVSFATIRFHDLLSQLDDQYSRFSLENNFLLQHNIRKSKRNLQDNFQEDPIQMSMIIYSCLKEERKILENAQRFNQAQSGNIQSTVMLDKQKELDSKVRNVKDKVMCIEHEIKSLEDLQDEYDFKCKTLQNREHETNGVAKSDQKQEQLLLKKMYLMLDNKRKEVVHKIIELLNVTELTQNALINDELVEWKRRQQSACIGGPPNACLDQLQNWFTIVAESLQQVRQQLKKLEELEQKYTYEHDPITKNKQVLWDRTFSLFQQLIQSSFVVERQPCMPTHPQRPLVLKTGVQFTVKLRLLVKLQELNYNLKVKVLFDKDVNERNTVKGFRKFNILGTHTKVMNMEESTNGSLAAEFRHLQLKEQKNAGTRTNEGPLIVTEELHSLSFETQLCQPGLVIDLETTSLPVVVISNVSQLPSGWASILWYNMLVAEPRNLSFFLTPPCARWAQLSEVLSWQFSSVTKRGLNVDQLNMLGEKLLGPNASPDGLIPWTRFCKENINDKNFPFWLWIESILELIKKHLLPLWNDGCIMGFISKERERALLKDQQPGTFLLRFSESSREGAITFTWVERSQNGGEPDFHAVEPYTKKELSAVTFPDIIRNYKVMAAANIPENPLKYLYPNIDKDHAFGKYYSRPKEAPEPMELDGPKGTGYIKTELISVSEVHPSRLQTTDNLLPMSPEEFDEVSRIVGSVEFDSMMNTV
Regarding B2, the ratio to parent in experiment [2] was determined as 0.71.

B3: STAT1cc (STAT1 core fragment, A656C and N658C, locked dimer), tag-free, P42224 K665A (protein)
chain: MSQWYELQQLDSKFLEQVHQLYDDSFPMEIRQYLAQWLEKQDWEHAANDVSFATIRFHDLLSQLDDQYSRFSLENNFLLQHNIRKSKRNLQDNFQEDPIQMSMIIYSCLKEERKILENAQRFNQAQSGNIQSTVMLDKQKELDSKVRNVKDKVMCIEHEIKSLEDLQDEYDFKCKTLQNREHETNGVAKSDQKQEQLLLKKMYLMLDNKRKEVVHKIIELLNVTELTQNALINDELVEWKRRQQSACIGGPPNACLDQLQNWFTIVAESLQQVRQQLKKLEELEQKYTYEHDPITKNKQVLWDRTFSLFQQLIQSSFVVERQPCMPTHPQRPLVLKTGVQFTVKLRLLVKLQELNYNLKVKVLFDKDVNERNTVKGFRKFNILGTHTKVMNMEESTNGSLAAEFRHLQLKEQKNAGTRTNEGPLIVTEELHSLSFETQLCQPGLVIDLETTSLPVVVISNVSQLPSGWASILWYNMLVAEPRNLSFFLTPPCARWAQLSEVLSWQFSSVTKRGLNVDQLNMLGEKLLGPNASPDGLIPWTRFCKENINDKNFPFWLWIESILELIKKHLLPLWNDGCIMGFISKERERALLKDQQPGTFLLRFSESSREGAITFTWVERSQNGGEPDFHAVEPYTKKELSAVTFPDIIRNYKVMAAENIPENPLAYLYPNIDKDHAFGKYYSRPKEAPEPMELDGPKGTGYIKTELISVSEVHPSRLQTTDNLLPMSPEEFDEVSRIVGSVEFDSMMNTV
For B3, the ratio to parent in experiment [2] came out at 0.7.
